For 3 molecules, ECL signal results are on record in US20120058906A1 (published 2012).

The target in assay [1] is T1, Recombinant Human DLL4 (R&D Systems Cat#1506-D4/CF) (human, UniProt Q9NR61 27-524).
T1 construct: also called delta-like protein 4
Kind of assay: MSD ECL multi-spot plate; Fab 130 nM; blank spot 1153.

Assay [2] deals with T2, rHuman CD44/Fc Chimera, CF (R&D Systems Cat#3660-CD) (human, UniProt P16070 21-220).
T2 construct: Fc part of the bought chimera not given
Described as above.

Assay [3] addresses T3, rHuman EGF R/Fc Chimera, CF (R&D Systems Cat#344-ER) (human, UniProt P00533 25-645).
T3 construct: also called epidermal growth factor receptor; Fc part of the bought chimera not given
The description is as above.

Assay [4] has as its target T4, rHuman IGF-1 sR, (IGF-1 sR), CF (R&D Systems Cat#391-GR) (human, UniProt P08069 31-932).
T4 construct: also called insulin-like growth factor-1 soluble receptor; IGF-R1
The description is as above.

Assay [5] addresses T5, rHuman HGF R/c-MET/Fc Chimera, CF (R&D Systems Cat#358-MT/CF) (human, UniProt P08581 25-932).
T5 construct: also called HGF R/Fc; hepatocyte growth factor receptor; Fc part of the bought chimera not given
The assay is described as above.

For assay [6], the target named is T6, rHuman Erythropoietin R/Fc Chimera, CF (R&D Systems Cat#963-ER) (human, UniProt P19235 25-250).
T6 construct: also called EPO R/Fc; Epo R; Fc part of the bought chimera not given
T6 sequence: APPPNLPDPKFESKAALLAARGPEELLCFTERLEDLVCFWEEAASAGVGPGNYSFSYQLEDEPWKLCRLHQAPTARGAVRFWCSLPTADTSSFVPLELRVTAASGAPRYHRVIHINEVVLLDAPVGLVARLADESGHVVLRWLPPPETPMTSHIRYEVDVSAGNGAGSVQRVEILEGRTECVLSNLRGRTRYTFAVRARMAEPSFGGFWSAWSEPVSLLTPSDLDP
The assay is described as above.

The target of assay [7] is T7, rHuman ErbB2/Fc Chimera, CF (R&D Systems Cat#1129-ER) (human, UniProt P04626 23-652).
T7 construct: also called HER2/neu; human epidermal growth factor 2 receptor; Fc part of the bought chimera not given
Described as above.

Assay [8] deals with T8, rHuman Notch-1/Fc Chimera, CF (R&D Systems Cat#3647-TK) (human, UniProt P46531 19-526).
T8 construct: Fc part of the bought chimera not given
The description is as above.

Assay [9] addresses T9, rHuman ErbB2/Fc Chimera, CF (R&D Systems Cat#1129-ER) (human, UniProt P04626 23-652).
T9 construct: Purchased Fc chimera; also called HER2/neu; not shown: Fc portion of the purchased chimera
Kind of assay: MSD ECL multi-spot plate, antigen immobilized; Fab 40 nM; blank spot 518.

The target of assay [10] is T10, rHuman Notch-1/Fc Chimera, CF (R&D Systems Cat#3647-TK) (human, UniProt P46531 19-526).
T10 construct: Purchased Fc chimera; not shown: Fc portion of the purchased chimera
The description is as above.

For assay [11], the target named is T11, rHuman HGF R/c-MET/Fc Chimera, CF (R&D Systems Cat#358-MT/CF) (human, UniProt P08581 25-932).
T11 construct: Purchased Fc chimera; also called HGF R/Fc; not shown: Fc portion of the purchased chimera
Described as above.

Assay [12] deals with T12, rHuman Erythropoietin R/Fc Chimera, CF (R&D Systems Cat#963-ER) (human, UniProt P19235 25-250).
T12 construct: Bought Fc chimera; also called EPO R/Fc; Epo R; Fc part of the bought chimera not given
T12 sequence: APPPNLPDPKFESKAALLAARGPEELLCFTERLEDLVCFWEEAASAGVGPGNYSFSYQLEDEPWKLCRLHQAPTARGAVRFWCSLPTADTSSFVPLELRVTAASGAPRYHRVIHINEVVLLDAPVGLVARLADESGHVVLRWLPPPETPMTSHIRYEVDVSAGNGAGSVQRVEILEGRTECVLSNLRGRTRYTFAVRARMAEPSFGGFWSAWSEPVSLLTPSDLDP
Kind of assay: ECL (MSD Multi-Spot) binding assay, antigen spotted on plate; Fab 154 nM; blank spot 447.

Assay [13] addresses T13, rHuman IGF-1 sR (IGF-1 sR), CF (R&D Systems Cat#391-GR) (human, UniProt P08069 31-932).
T13 construct: Bought soluble receptor; also called insulin-like growth factor-1 soluble receptor; IGF-R1
The description is as above.

For assay [14], the target named is T14, rHuman ErbB2/Fc Chimera, CF (R&D Systems Cat#1129-ER) (human, UniProt P04626 23-652).
T14 construct: Bought Fc chimera; also called HER2/neu; human epidermal growth factor 2 receptor; Fc part of the bought chimera not given
The assay is described as above.

Assay [15] has as its target T15, rHuman EGF R/Fc Chimera, CF (R&D Systems Cat#344-ER) (human, UniProt P00533 25-645).
T15 construct: Bought Fc chimera; also called epidermal growth factor receptor; Fc part of the bought chimera not given
Described as above.

Assay [16] has as its target T16, rHuman Notch-1/Fc Chimera, CF (R&D Systems Cat#3647-TK) (human, UniProt P46531 19-526).
T16 construct: Bought Fc chimera; Fc part of the bought chimera not given
Described as above.

The target in assay [17] is T17, rHuman CD44/Fc Chimera, CF (R&D Systems Cat#3660-CD) (human, UniProt P16070 21-220).
T17 construct: Bought Fc chimera; Fc part of the bought chimera not given
The assay is described as above.

Assay [18] has as its target T18, Recombinant Human DLL4 (R&D Systems Cat#1506-D4/CF) (human, UniProt Q9NR61 27-524).
T18 construct: Bought recombinant protein; also called delta-like protein 4; rHuman DLL4
Described as above.
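Note: blank spot per well as comparator with Hit at signal to blank ratio of 4 or more.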

B1: Fab VH1-8_IGHD2-2*01_IGHJ6*01 & L12_IGKJ1*01 (Fab, V domains shown)
VH: QVQLVQSGAEVKKPGASVKVSCKASGYTFTSYDINWVRQATGQGLEWMGWMNPNSGNTGYAQKFQGRVTMTRNTSISTAYMELSSLRSEDTAVYYCARGGYCSSTSCYADYYYYYGMDVWGQGTTVTVSS
VL: not shown
Consider B1, for which the ECL signal was 7740 ECL signal in assay [1]; 1750 ECL signal in [2]; 1750 ECL signal in [3]; 1970 ECL signal in assay [4]; 1880 ECL signal in [5]; 2150 ECL signal in [6]. The ECL signal in [7] was determined as 1530 ECL signal; in assay [8], 1760 ECL signal.

B2: Fab VH5-51_IGHD5-18*01>3_IGHJ4*01_G100K & V3-4_IGLJ1*01 (Fab, V domains shown)
VH: EVQLVQSGAEVKKPGESLKISCKGSGYSFTSYWIGWVRQMPGKGLEWMGIIYPGDSDTRYSPSFQGQVTISADKSISTAYLQWSSLKASDTAMYYCARRKYSYGYDYFDYWGQGTLVTVSS
VL: QTVVTQEPSFSVSPGGTVTLTCGLSSGSVSTSYYPSWYQQTPGQAPRTLIYSTNTRSSGVPDRFSGSILGNKAALTITGAQADDESDYYCVLYMGSGISYVFGTGTKVTVL
notes: It was expressed as a Fab: CH1 with tags from Plasmid A and lambda CL from Plasmid E; also called Fab No. 22
For the molecule B2, the ECL signal was found to be 1390 ECL signal in [9], 875 ECL signal in assay [10] and 1310 ECL signal in assay [11].

B3: Fab VH5-51_IGHD5-18*01>3_IGHJ4*01 & V3-4_IGLJ1*01 (Fab, V domains shown)
VH: EVQLVQSGAEVKKPGESLKISCKGSGYSFTSYWIGWVRQMPGKGLEWMGIIYPGDSDTRYSPSFQGQVTISADKSISTAYLQWSSLKASDTAMYYCARRGYSYGYDYFDYWGQGTLVTVSS
VL: QTVVTQEPSFSVSPGGTVTLTCGLSSGSVSTSYYPSWYQQTPGQAPRTLIYSTNTRSSGVPDRFSGSILGNKAALTITGAQADDESDYYCVLYMGSGISYVFGTGTKVTVL
notes: Tested as a Fab made in E. coli; also called IGHV5-51*03
In the case of B3, the ECL signal in assay [12] came to 1200; in assay [13] it was 1400; in assay [14] it was 1590; in [15], 1400; in assay [16], 929; in assay [17] it was 960. In assay [18], the ECL signal stood at 40400.
